Results: PMC3010429

Biological target: hMutSα (hMSH2-hMSH6) WT recombinant (Homo sapiens, UniProt P43246;P52701 1-934;1-1360)
Experiment: EMSA, supershift

Chain of hMutSα (hMSH2-hMSH6) WT recombinant (P43246 whole entry, chain 1 of 2): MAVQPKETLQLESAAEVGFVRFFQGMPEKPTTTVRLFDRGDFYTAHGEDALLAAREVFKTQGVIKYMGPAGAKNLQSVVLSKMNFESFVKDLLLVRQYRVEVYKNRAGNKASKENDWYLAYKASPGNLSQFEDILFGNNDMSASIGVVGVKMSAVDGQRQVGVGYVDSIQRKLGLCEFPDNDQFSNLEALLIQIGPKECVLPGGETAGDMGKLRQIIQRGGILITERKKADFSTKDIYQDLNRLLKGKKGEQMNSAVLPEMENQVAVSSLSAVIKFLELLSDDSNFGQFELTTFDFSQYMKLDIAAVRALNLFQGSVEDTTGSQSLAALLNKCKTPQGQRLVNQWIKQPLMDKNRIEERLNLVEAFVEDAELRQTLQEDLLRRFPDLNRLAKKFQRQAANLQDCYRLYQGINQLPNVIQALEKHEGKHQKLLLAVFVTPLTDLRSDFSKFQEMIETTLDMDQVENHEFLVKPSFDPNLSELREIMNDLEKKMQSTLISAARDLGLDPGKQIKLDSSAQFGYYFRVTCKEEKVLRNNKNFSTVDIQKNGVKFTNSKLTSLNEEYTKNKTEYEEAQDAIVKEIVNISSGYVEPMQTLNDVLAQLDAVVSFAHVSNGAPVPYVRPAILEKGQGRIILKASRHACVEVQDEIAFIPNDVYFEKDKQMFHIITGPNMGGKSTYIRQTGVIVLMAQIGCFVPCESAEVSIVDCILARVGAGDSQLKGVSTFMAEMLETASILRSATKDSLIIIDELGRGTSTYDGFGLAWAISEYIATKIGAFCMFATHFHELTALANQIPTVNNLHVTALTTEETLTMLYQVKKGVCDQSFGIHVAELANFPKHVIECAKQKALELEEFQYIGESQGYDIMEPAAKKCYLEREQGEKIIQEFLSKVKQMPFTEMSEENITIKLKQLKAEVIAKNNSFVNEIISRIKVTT
Chain of hMutSα (hMSH2-hMSH6) WT recombinant (P52701 whole entry, chain 2 of 2): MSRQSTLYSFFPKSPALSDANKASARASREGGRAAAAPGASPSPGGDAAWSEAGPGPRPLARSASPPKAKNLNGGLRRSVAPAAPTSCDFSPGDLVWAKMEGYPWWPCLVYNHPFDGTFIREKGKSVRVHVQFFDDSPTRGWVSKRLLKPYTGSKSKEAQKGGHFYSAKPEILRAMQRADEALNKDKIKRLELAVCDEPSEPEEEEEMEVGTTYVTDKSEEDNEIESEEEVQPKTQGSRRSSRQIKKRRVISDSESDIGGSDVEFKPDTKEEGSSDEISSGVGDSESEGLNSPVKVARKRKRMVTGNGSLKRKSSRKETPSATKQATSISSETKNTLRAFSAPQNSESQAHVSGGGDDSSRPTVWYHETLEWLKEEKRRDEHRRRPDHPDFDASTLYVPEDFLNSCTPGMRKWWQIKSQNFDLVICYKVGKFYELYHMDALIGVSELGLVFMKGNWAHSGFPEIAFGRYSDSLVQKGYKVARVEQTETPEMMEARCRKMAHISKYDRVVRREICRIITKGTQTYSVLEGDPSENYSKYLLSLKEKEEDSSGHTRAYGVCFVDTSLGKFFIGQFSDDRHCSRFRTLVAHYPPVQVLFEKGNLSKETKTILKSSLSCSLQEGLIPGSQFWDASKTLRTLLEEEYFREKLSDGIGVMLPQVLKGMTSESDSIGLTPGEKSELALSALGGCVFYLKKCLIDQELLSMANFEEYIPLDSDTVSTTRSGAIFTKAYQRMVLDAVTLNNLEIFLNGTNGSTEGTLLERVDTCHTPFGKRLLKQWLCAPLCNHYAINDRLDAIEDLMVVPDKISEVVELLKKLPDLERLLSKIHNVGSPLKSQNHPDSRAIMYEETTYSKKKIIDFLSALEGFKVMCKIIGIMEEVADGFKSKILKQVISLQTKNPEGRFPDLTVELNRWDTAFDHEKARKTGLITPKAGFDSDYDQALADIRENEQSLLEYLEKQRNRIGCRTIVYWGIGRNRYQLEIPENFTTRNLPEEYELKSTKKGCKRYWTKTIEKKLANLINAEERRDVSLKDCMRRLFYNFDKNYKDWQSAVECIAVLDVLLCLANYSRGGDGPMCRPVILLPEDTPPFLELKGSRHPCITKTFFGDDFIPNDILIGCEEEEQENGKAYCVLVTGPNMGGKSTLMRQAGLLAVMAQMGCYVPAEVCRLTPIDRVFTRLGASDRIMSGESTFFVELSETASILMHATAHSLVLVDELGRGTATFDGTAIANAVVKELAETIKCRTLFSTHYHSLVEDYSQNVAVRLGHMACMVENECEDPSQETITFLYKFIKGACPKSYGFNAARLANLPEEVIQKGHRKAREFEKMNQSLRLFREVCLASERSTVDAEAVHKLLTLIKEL

B1: G:T 69mer (dsDNA)
DNA 1: AATTCACGGAATATAAGCTGGTGGTGGTGGGCGCCGGCGGTTGGGCAAGAGTGCGCTGACCATCCAGG
DNA 2: CCTGGATGGTCAGCGCACTCTTGCCCAACCGTCGGCGCCCACCACCACCAGCTTATATTCCGTGAATT
- binding result: binds
